Molecular target: T1, activated matriptase (human, UniProt Q9Y5Y6 1-855)
T1 sequence (looked up): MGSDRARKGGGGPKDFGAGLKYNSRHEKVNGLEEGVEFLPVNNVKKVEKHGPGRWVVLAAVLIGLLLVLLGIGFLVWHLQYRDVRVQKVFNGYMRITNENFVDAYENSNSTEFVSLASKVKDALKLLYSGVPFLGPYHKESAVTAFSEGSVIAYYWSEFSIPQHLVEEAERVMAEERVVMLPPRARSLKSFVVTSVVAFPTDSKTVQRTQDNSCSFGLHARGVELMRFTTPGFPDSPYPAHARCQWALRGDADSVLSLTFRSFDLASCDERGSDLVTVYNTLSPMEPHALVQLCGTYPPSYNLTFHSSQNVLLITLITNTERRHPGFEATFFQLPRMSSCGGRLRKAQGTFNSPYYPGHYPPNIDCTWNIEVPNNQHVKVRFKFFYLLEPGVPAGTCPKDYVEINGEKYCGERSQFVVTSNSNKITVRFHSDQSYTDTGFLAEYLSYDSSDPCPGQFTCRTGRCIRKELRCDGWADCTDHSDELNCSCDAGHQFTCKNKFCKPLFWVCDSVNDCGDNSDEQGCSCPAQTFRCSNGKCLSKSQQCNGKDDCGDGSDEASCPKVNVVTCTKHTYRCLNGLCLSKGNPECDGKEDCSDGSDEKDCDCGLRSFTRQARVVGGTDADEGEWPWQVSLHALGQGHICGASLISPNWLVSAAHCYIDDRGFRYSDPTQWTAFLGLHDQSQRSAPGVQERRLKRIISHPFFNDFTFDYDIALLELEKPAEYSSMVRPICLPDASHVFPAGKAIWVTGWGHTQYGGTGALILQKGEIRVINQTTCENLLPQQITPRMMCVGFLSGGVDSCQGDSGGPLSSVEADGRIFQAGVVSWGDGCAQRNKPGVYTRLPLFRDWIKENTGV
Test: cell-based or functional assay

B1: M17-DOX (monoclonal antibody M17 against activated matriptase conjugated to doxorubicin) (antibody, V domains shown)
VH: EVKLVESGGGLVQPGGSRKLSCAASGFTFSSFGMHWVRQAPEKGLEWVAYISSGSSTLHYADTVKGRFTISRDNPENTLLLMKLPSLCYGLLGSRNLSPRVLQ
VL: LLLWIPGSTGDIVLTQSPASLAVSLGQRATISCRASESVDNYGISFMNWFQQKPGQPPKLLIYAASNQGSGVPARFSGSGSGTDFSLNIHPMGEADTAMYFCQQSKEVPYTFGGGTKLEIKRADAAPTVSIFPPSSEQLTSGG
modifications: doxorubicin coupled via thioether bond formed by the SMCC reaction; sites not stated
IC50, MTS cell proliferation (cytotoxicity) assay, breast cancer cells MDA-MB468: 0.65 µg/mL

— patent US20150250895A1 (GEORGETOWN UNIVERSITY, published 2015)
